# Reference: patent US20110312881A1 (AMUNIX, published 2011)
# B1: mouse IL-1 receptor fused to Fc domain of human IgG (IL-1R/Fc, R&D Systems) (Fc fusion, UniProt P13504 20-338, looked up)
# chain: LEIDVCTEYPNQIVLFLSVNEIDIRKCPLTPNKMHGDTIIWYKNDSKTPISADRDSRIHQQNEHLWFVPAKVEDSGYYYCIVRNSTYCLKTKVTVTVLENDPGLCYSTQATFPQRLHIAGDGSLVCPYVSYFKDENNELPEVQWYKNCKPLLLDNVSFFGVKDKLLVRNVAEEHRGDYICRMSYTFRGKQYPVTRVIQFITIDENKRDRPVILSPRNETIEADPGSMIQLICNVTGQFSDLVYWKWNGSEIEWNDPFLAEDYQFVEHPSTKRKYTLITTLNISEVKSQFYRYPFICVVKNTNIFESAHVQLIYPVPDFK
# notes: Bought reagent, coated on the plate at 50 ng per well; not shown: Fc domain of human IgG
# Target: T1, XTEN_AM875-hGH (human, UniProt P01241 27-217)
# T1 construct: Negative control in the IL-1 receptor ELISA
# T1 sequence (P01241 other isoform, or with tags, fused parts or gaps limits assumed): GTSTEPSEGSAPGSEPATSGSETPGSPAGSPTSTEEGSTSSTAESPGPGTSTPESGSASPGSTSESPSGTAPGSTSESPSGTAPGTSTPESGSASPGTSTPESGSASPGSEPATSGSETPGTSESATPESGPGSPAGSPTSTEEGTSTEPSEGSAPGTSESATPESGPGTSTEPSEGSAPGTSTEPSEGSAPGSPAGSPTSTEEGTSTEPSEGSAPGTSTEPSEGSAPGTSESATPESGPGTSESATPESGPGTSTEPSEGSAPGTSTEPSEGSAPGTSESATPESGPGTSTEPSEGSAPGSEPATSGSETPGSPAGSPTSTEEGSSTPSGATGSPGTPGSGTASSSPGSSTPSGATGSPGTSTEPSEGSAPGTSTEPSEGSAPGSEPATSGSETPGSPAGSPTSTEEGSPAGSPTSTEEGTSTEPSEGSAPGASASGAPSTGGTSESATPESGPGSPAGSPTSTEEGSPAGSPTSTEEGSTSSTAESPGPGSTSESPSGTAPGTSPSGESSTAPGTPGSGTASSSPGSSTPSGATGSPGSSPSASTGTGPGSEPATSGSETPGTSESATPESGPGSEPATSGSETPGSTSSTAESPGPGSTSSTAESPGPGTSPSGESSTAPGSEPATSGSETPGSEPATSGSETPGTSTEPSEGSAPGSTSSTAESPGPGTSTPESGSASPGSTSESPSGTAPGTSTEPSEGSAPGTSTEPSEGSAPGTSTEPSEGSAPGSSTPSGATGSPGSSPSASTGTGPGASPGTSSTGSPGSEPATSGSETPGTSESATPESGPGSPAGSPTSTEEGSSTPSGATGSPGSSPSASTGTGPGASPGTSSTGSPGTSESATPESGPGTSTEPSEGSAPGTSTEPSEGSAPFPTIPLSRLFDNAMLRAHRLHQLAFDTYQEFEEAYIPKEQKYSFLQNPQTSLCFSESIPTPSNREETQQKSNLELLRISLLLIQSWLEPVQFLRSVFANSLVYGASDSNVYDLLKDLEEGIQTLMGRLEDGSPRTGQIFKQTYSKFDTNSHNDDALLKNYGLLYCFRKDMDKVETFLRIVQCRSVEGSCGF
# Test: ELISA, plate-coated mouse IL-1R/Fc
# Protocol: To evaluate the activity of the IL-1ra-containing XTEN fusion proteins, an ELISA based receptor binding assay was used. Here the wells of a Costar 3690 assay plate were coated overnight with 50 ng per well of mouse IL-1 receptor fused to Fc domain of human IgG (IL-1R/Fc, R&D Systems). Subsequently the wells were blocked with 3% BSA to prevent nonspecific interactions with the solid phase. After thoroughly washing the wells, a dilution series of either IL-1ra-XTEN_AM875, XTEN_AM875-IL-1ra, or IL-1ra (anakinra) was applied to the wells. The binding reaction was allowed to proceed for 2 hr at room temperature. Unbound Il-1ra was removed by repeated washing. The bound IL-1ra ad IL-1ra-XTEn fusions were detected with a biotinylated anti-human II-1ra antibody and a horseradish peroxidase-conjugated streptavidin. […] The absorbance of each well at 450 nm and 570 nm was recorded on a SpectrMax 384Plus spectrophotometer. The corrected absorbance signal (Abscorr=Abs₄₅₀ₙₘ−Abs₅₇₀ₙₘ) was plotted as a function of IL-1ra-XTEN or IL-1ra concentration to produce a binding isotherm as shown in FIG. 17.
# To estimate the binding affinity of each fusion protein for the IL-1 receptor, the binding data was fit to a sigmoidal dose-response curve. From the fit of the data an EC50 (the concentration of IL-1ra or IL-1ra-XTEN at which the signal is half maximal) for each construct was determined.
binder,measurement,value
B1,binding result,no binding
